Assay results reported in IntAct's records for PubMed 34502139.

B1: Mitochondrial import receptor subunit TOM70 (Homo sapiens), O94826 (parent)
chain: MAASKPVEAAVVAAAVPSSGSGVGGGGTAGPGTGGLPRWQLALAVGAPLLLGAGAIYLWSRQQRRREARGRGDASGLKRNSERKTPEGRASPAPGSGHPEGPGAHLDMNSLDRAQAAKNKGNKYFKAGKYEQAIQCYTEAISLCPTEKNVDLSTFYQNRAAAFEQLQKWKEVAQDCTKAVELNPKYVKALFRRAKAHEKLDNKKECLEDVTAVCILEGFQNQQSMLLADKVLKLLGKEKAKEKYKNREPLMPSPQFIKSYFSSFTDDIISQPMLKGEKSDEDKDKEGEALEVKENSGYLKAKQYMEEENYDKIISECSKEIDAEGKYMAEALLLRATFYLLIGNANAAKPDLDKVISLKEANVKLRANALIKRGSMYMQQQQPLLSTQDFNMAADIDPQNADVYHHRGQLKILLDQVEEAVADFDECIRLRPESALAQAQKCFALYRQAYTGNNSSQIQAAMKGFEEVIKKFPRCAEGYALYAQALTDQQQFGKADEMYDKCIDLEPDNATTYVHKGLLQLQWKQDLDRGLELISKAIEIDNKCDFAYETMGTIEVQRGNMEKAIDMFNKAINLAKSEMEMAHLYSLCDAAHAQTEVAKKYGLKPPTL
B2: Mitochondrial import receptor subunit TOM70 (Homo sapiens), O94826 (parent)
chain: B1 chain
partner: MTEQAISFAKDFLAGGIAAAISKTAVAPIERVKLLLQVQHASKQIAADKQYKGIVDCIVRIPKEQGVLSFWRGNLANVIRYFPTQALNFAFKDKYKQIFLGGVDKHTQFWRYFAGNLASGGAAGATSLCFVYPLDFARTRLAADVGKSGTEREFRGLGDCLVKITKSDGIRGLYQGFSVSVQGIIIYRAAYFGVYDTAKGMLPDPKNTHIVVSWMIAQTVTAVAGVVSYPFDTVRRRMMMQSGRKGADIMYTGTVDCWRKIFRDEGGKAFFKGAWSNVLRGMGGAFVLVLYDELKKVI

Variants of: B1
Settings: with hs90b_human HSP90AB1, P08238
Sequence of hs90b_human HSP90AB1, P08238 (P08238 whole entry): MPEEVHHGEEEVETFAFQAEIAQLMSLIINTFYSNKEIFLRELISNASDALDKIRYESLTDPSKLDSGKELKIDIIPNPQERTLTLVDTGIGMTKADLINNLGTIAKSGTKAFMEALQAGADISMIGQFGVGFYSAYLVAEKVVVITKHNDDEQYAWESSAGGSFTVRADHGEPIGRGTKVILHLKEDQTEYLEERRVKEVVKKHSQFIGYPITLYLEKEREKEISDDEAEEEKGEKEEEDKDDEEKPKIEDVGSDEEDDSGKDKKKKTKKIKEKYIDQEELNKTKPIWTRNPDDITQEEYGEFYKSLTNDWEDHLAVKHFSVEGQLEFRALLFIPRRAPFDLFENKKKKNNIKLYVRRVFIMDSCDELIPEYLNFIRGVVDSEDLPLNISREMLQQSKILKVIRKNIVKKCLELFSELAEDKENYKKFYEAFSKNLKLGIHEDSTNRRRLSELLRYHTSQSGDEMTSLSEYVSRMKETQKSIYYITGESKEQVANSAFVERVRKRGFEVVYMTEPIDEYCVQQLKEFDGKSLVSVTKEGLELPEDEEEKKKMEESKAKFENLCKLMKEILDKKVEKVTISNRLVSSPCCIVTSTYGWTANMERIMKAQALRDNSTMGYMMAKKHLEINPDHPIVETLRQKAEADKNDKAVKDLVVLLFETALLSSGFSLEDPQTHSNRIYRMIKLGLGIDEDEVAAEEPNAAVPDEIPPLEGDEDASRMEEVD

Variant | effect of a mutation on the interaction
R192A | decreasing interaction strength
E477A | decreasing interaction strength

Variants of: B2
Settings: with adt3_human SLC25A6, P12236

effect of a mutation on the interaction | Variant
decreasing interaction strength | E477A
